Patent US20210130473A1 (SILVERBACK THERAPEUTICS, published 2021)

T1: rat ASGR1 on CHO-S cells (rat, UniProt P02706 1-284)
T1 construct: whole, on cells
T1 sequence (looked up): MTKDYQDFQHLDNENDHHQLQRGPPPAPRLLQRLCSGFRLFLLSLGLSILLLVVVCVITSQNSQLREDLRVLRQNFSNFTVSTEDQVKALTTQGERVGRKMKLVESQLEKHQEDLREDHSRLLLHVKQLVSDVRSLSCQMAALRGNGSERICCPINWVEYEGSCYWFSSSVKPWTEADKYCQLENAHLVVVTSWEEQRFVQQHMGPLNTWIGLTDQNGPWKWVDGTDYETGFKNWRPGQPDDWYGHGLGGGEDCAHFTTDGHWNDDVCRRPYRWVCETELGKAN

T2: human Fc-fused human ASGR1 extracellular domain (human, UniProt P07306 62-291)
T2 construct: extracellular domain; also called human Fc-fused ASGR1 ECD; not shown: human Fc
T2 sequence (looked up): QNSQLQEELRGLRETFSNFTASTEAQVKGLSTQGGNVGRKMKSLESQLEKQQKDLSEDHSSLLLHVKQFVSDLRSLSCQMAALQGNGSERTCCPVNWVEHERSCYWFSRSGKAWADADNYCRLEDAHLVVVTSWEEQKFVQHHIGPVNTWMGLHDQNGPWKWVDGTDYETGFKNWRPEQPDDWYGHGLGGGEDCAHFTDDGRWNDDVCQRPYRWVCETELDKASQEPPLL

T3: human ASGR1 (asialoglycoprotein receptor 1) on cells (human, UniProt P07306 1-291)
T3 construct: whole, on cells; also called HepG2 cells; CHO-S cells transfected with human ASGR1 full length DNA
T3 sequence (looked up): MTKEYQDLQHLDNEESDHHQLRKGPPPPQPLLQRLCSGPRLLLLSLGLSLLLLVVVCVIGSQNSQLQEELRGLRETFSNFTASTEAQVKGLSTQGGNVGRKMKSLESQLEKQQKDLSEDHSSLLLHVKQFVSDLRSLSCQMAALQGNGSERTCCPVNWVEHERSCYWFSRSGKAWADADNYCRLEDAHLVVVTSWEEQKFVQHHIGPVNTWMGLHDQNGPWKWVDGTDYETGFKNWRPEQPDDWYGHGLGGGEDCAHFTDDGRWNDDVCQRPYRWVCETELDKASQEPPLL

T4: His-tagged human ASGR1 extracellular domain (human, UniProt P07306 62-291)
T4 construct: extracellular domain; also called His-tagged human ASGR1 ECD; human ASGR1 ECD; not shown: His tag
T4 sequence (looked up): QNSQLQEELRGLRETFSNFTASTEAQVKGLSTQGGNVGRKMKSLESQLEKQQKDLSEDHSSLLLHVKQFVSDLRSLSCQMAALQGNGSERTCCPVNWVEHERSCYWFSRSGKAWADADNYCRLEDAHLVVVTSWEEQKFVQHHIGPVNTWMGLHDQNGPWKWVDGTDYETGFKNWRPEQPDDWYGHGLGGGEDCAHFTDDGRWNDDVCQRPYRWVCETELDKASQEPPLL

T5: rat CLEC10A (rat, UniProt P49301 59-306, limits assumed)
T5 construct: the assay is not described
T5 sequence (looked up): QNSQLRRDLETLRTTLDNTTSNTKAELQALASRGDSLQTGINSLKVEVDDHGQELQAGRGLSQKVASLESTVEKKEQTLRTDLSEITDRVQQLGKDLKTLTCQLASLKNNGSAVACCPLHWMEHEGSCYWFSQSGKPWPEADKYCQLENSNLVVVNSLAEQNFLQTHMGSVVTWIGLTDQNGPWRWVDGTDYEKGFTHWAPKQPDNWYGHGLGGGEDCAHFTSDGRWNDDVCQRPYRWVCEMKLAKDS


Tests used:
[1] = target: T6, Cynomolgus macaque ASGR1 on CHO-S cells (Cynomolgus macaque); experiment: Guava flow cytometry on CHO-S cells expressing cynomolgus ASGR1 (repeat of Table 15)
T6 construct: whole, on cells; also called Cynomologous ASGR1
Protocol: (§1) Anti-human ASGR1 antibodies of this disclosure were examined for cross-reactivity with Cynomolgus macaque and rat ASGR1. Briefly, sequence encoding Cynomolgus macaque or rat ASGR1 was transiently transfected into CHO-S cells. Transfected cells were before performing cell binding assay. A total of about 1.5×10⁴ transfected cells/well were added to 96-well V-bottom assay plate, incubated at 37° C., 5% CO2 for 48-72 hours, and then washed with culture medium before adding 100 μl of each ASGR1 antibody at different concentrations starting from 100 nM and 3-fold dilutions to a total of eight wells. The cells with antibody were incubated for 40 minutes at 4° C., then washed three times with 200 μl of fresh culture medium. To each well was added 50 μl PE conjugated goat anti-human Fc (SouthemBiotech) at 1:200 dilution in culture medium and then incubated at 4° C. for 20 minutes. After washing the plate once, the treated cells were resuspended in 200 μl culture medium and then the stained cells were analyzed on GUAVA® using Incyte software.

[2] = target: T6, Cynomolgus macaque ASGR1 on CHO-S cells; experiment: Guava flow cytometry on CHO-S cells expressing cynomolgus ASGR1
Protocol: as §1

[3] = target: T1, rat ASGR1 on CHO-S cells; experiment: Guava flow cytometry on CHO-S cells expressing rat ASGR1
[4] = target: T2, human Fc-fused human ASGR1 …; experiment: Octet binning, hFc-ASGR1 ECD on AHC sensors; competitor: ASGR1 mAb-A
Protocol: The interactions of the anti-ASGR1 antibodies of this disclosure and control mAbs with human ASGR1 ECD were analyzed using the OCTET® Data Analysis Software 9.0 (ForteBio).

[5] = target: T3, human ASGR1 (asialoglycoprotein …); experiment: flow cytometry on HepG2 cells, anti-human IgG PE secondary, MFI (Geo Mean)
Protocol: Briefly, 5×10⁴ HepG2 cells/well were contacted with titrating concentrations of anti-ASGR1 antibodies in FACS Buffer (FB: PBS+2% FBS+1 mM CaCl₂)) for 30 minutes at 4° C. Cells were washed twice in FB, then incubated in anti-human IgG PE secondary for 30 minutes at 4° C. Cells were washed twice in FB, then analyzed by flow cytometry.

[6] = target: T4, His-tagged human ASGR1 extracellular …; experiment: Octet, His-tagged ASGR1 ECD on Penta-His sensors; N = association not sensitive to Ca2+ (binds also without calcium)
Protocol: Analysis of ASGR1 antibody binding to human ASGR1 ECD was performed using the OCTET® Red 96 instrument and analyzed using the OCTET®Data Analysis Software 9.0 (ForteBio). His-tagged human ASGR1 ECD was immobilized to OCTET® Penta-His biosensors and ASGR1 antibodies were subjected to avidity binding under the conditions described above. Association with the ASGR1 ECD was measured by the rate of and increase in magnitude of signal response at a given antibody concentration. Dissociation from the ASGR1 ECD was measured the rate of loss in signal upon removal of the antibody and further incubation with or without Ca²⁺.

[7] = target: T5, rat CLEC10A; experiment: not described
[8] = target: T1, rat ASGR1 on CHO-S cells; experiment: Guava flow cytometry on CHO-S cells expressing rat ASGR1 (repeat of Table 16)
Protocol: as §1, with “Briefly,” for “Anti-human ASGR1 antibodies of this disclosure were examined for cross-reactivity with Cynomolgus macaque and rat ASGR1. Briefly,”, “(SouthernBiotech)” for “(SouthemBiotech)”
as §1

[9] = target: T1, rat ASGR1 on CHO-S cells; experiment: Guava flow cytometry on CHO-S cells expressing rat ASGR1; remark: listed apart in the source
Protocol: as §1

Row | EC50 [1] [nM] | EC50 [2] [nM] | binding result [4] | binding result [5] | Binder | binding result [3] | further results
1 | 0.66 | 0.66 | – | – | hzH8K-1 (antibody, IgG1, V domains shown, IgG1, kappa) VH: QVQLQESGPGLVKPSQTLSLTCTVSGGSISSDYAWNWIRQHPGKGLEWIGYRSYRGSTSYNPSLKSRVTISVDTSKNQFSLKLSSVTAADTAVYYCARRGYYGSSSHWYFDVWGQGTTVTVSS VL: DIQMTQSPSSLSASVGDRVTITCRASENIYSYLAWYQQKPGKAPKLLIYNAKTLAEGVPSRFSGSGSGTDFTLTISSLQPEDFATYYCQHHYGTPLTFGGGTKVEIK | no binding (tested: 100 nM highest concentration) | –
2 | – | – | binds | binds | H8K (antibody, V domains shown, parental mouse hybridoma antibody; also called mAb H8K) VH: DVQLQESGPGLVKPSQSLSLTCTVTGFSITSDYAWNWIRQFPGNQLEWMGYRSYRGSTSYNPSLKSRISITRDTSKNQFFLQLNSVTTEDTATYYCARRGYYGSSSHWYFDVWGAGTTVTVSS VL: DIQMTQSPASLSASVGETVTITCRASENIYSYLAWYQQKQGKSPQLLVYNAKTLAEGVPSRFSGSGSGTQFSLKINSLQPEDFGSYYCQHHYGTPLTFGSGTKLELK | – | –
3 | – | – | binds | binds | L4L (antibody, V domains shown, parental mouse hybridoma antibody; also called mAb L4L) VH: DVQLQESGPGLVKPSQSLSLTCTVTGYSITSDYAWNWIRQFPGNKLEWMGYISYSGSTRYNPSLKSRISITRDTSKNQFFLQLNSVTTEDTATYYCARRYRYDEGYGMDYWGQGTSVTVSS VL: DIQMTQSPASLSVFVGEIVTITCRASENIYSNLAWYQQKQGKSPQLLVYAATNLADGVPSRFTGSGSGTQFSLKINSLQSEDFGNYYCQHFWGTPPWTFGGGTKLEIK | – | –
4 | 0.39 | 0.39 | – | – | hzL4L-7 (antibody, IgG1, V domains shown, IgG1, kappa) VH: QVQLQESGPGLVKPSQTLSLTCTVSGYSISSDYAWNWIRQHPGKGLEWIGYISYSGSTRYNPSLKSRVTITRDTSKNQFSLKLSSVTAADTAVYYCARRYRYDEGYGMDYWGQGTTVTVSS VL: DIQMTQSPSSLSASVGDRVTITCRASENIYSNLAWYQQKPGKAPKLLIYAATNLADGVPSRFSGSGSGTDFTLTISSLQPEDFATYYCQHFWGTPPWTFGGGTKVEIK | no binding (tested: 100 nM highest concentration) | binding result [6]: binds
5 | 0.47 | 0.47 | – | – | G2D (antibody, V domains shown, parental mouse hybridoma antibody; also called mAb G2D) VH: EVQLQQSGPELVKPGASVKISCKASGYSFTGYYMHWVKQSHVKSLEWIGRINPNNGATNYNQNFKDKASLTVDKSSSTAYMEFHSLTSEDSAVYYCTSVNFYYWGQGTTLTVSS VL: DIKMTQSPSSMYASLGERVTITCKASQVINSYLSWFQQKPGKSPETLIYRANTLVDGVPSRFSGSGSGQDYSLTISSLEYEDLGIYYCLQYAEFPYTFGGGTKLEIK | – | binding result [7]: no binding; EC50 [8]: 0.37 nM; EC50 (read off the curve) [5]: ~0.2 µg/mL; EC50 [9]: 0.37 nM
